Experimental data as given in US8357701B2, “Galactokinase inhibitors” (University of Miami, priority 2007, dated 2013).

Columns and labels:
[1] = system: T1, O=C[C@H](O)[C@@H](O)[C@@H](O)[C@H](O)CO; experiment: standard pyruvate kinase/lactate dehydrogenase-coupled GALK assay; assay type: biochemical; details: other: substrates of purified human GALK
T1 construct: made in house; host or cells: Escherichia coli HMS174 (DE3), plasmid pET15b
Excerpt: As the percentage of substrate conversion can have significant impact on the accuracy of IC50 determination, the preferred approach is to determine reaction rates at initial velocity (i.e., zero substrate conversion). […] In this assay, the amount of galactose present in the reaction is kept in excess, whereas ATP consumed by the galactokinase reaction is recycled by the pyruvate kinase reaction. As a result, the reaction rates calculated will be close to initial velocity.
As the percentage of substrate conversion can have significant impact on the accuracy of IC50 determination, the preferred approach is to determine reaction rates at initial velocity (i.e., zero substrate conversion). […] The dose response of the selected compounds was analyzed using the standard pyruvate kinase/lactate dehydrogenase-Coupled assay. In this assay, the amount of galactose present in the reaction was kept in excess, whereas ATP consumed by the galactokinase reaction was recycled by the pyruvate kinase reaction. As a result, the reaction rates calculated were close to initial velocity.

[2] = system: Nc1ncnc2c1ncn2[C@@H]1O[C@H](COP(=O)(O)OP(=O)(O)OP(=O)(O)O)[C@@H](O)[C@H]1O; experiment: purified protein, by the assay type; details: other: substrates of purified human GALK

## human GALK (Homo sapiens)
[1]
  Km: 210 µM
[2]
  Km: 42 µM
